# Measurements taken from US20180044374A1.
# Experiments:
# [1] = target: human polyclonal IgG (Gammanorm) (human); test: pH 6-3 citrate gradient elution from column, peak 1
# [2] = target: human polyclonal IgG (Gammanorm) (human); test: pH 6-3 citrate gradient elution from column, peak 2
# [3] = target: human polyclonal IgG (Gammanorm) (human); test: dynamic binding capacity, measured after 24 h cumulative exposure to 0.5 M NaOH; ligand 9.7 mg/ml on agarose beads
# [4] = target: human polyclonal IgG (Gammanorm) (human); test: dynamic binding capacity, 6 min residence; ligand 9.7 mg/ml on agarose beads
# [5] = target: human polyclonal IgG (Gammanorm) (human); test: as above; remark: listed apart in the source
# [6] = target: human polyclonal IgG (Gammanorm) (human); test: dynamic binding capacity, measured after six 4 h cycles in 1.0 M NaOH; ligand 9.7 mg/ml on agarose beads
# [7] = target: human polyclonal IgG (Gammanorm) (human); test: dynamic binding capacity, measured after 24 h cumulative exposure to 0.5 M NaOH; ligand […] on agarose beads
# [8] = target: human polyclonal IgG (Gammanorm) (human); test: dynamic binding capacity, measured after 24 h cumulative exposure to 0.5 M NaOH; ligand 7.0 mg/ml on agarose beads
# [9] = target: human polyclonal IgG (Gammanorm) (human); test: dynamic binding capacity, 6 min residence; ligand 7.0 mg/ml on agarose beads
# [10] = target: human polyclonal IgG (Gammanorm) (human); test: dynamic binding capacity, 6 min residence; ligand […] on agarose beads
# [11] = target: IgG1 monoclonal antibody (probe molecule, Example 1); test: SPR (Biacore), ligand on CM5 chip, IgG1 mAb as probe
# [12] = target: human polyclonal IgG (Gammanorm) (human); test: dynamic binding capacity, measured after 24 h cumulative exposure to 0.5 M NaOH; ligand 7.2 mg/ml on agarose beads
# [13] = target: human polyclonal IgG (Gammanorm) (human); test: dynamic binding capacity, 6 min residence; ligand […] on agarose beads; remark: listed apart in the source
# [14] = target: human polyclonal IgG (Gammanorm) (human); test: dynamic binding capacity, 6 min residence; ligand 7.2 mg/ml on agarose beads
# [15] = target: human polyclonal IgG (Gammanorm) (human); test: dynamic binding capacity, measured after six 4 h cycles in 1.0 M NaOH; ligand […] on agarose beads
# [16] = target: human polyclonal IgG (Gammanorm) (human); test: dynamic binding capacity; matrix H35, ligand 12.3 mg/ml
# [17] = target: human polyclonal IgG (Gammanorm) (human); test: dynamic binding capacity; matrix A56, ligand 15.2 mg/ml
# [18] = target: human polyclonal IgG (Gammanorm) (human); test: dynamic binding capacity; matrix C3, ligand […]
# [19] = target: human polyclonal IgG (Gammanorm) (human); test: dynamic binding capacity; matrix C4, ligand 15.2 mg/ml
# [20] = target: human polyclonal IgG (Gammanorm) (human); test: dynamic binding capacity; matrix A20, ligand 6.4 mg/ml
# [21] = target: human polyclonal IgG (Gammanorm) (human); test: dynamic binding capacity; matrix A54, ligand […]; conditions: ligand content 6.7 mg/ml
# [22] = target: human polyclonal IgG (Gammanorm) (human); test: dynamic binding capacity; matrix P10, ligand 19.0 mg/ml
# [23] = target: human polyclonal IgG (Gammanorm) (human); test: dynamic binding capacity; matrix A56, ligand 19.2 mg/ml
# [24] = target: human polyclonal IgG (Gammanorm) (human); test: dynamic binding capacity; matrix A20, ligand 21.1 mg/ml
# [25] = target: human polyclonal IgG (Gammanorm) (human); test: dynamic binding capacity; matrix A56-2, ligand 12.5 mg/ml
# [26] = target: human polyclonal IgG (Gammanorm) (human); test: dynamic binding capacity; matrix C3, ligand 15.1 mg/ml
# [27] = target: human polyclonal IgG (Gammanorm) (human); test: dynamic binding capacity; matrix A63b, ligand 16.7 mg/ml
# [28] = target: human polyclonal IgG (Gammanorm) (human); test: dynamic binding capacity; matrix A56, ligand 7.9 mg/ml
# [29] = target: human polyclonal IgG (Gammanorm) (human); test: dynamic binding capacity; matrix H35, ligand […]
# [30] = target: human polyclonal IgG (Gammanorm) (human); test: dynamic binding capacity; matrix A63b, ligand 6.4 mg/ml
# [31] = target: human polyclonal IgG (Gammanorm) (human); test: dynamic binding capacity; matrix A38, ligand 15.8 mg/ml
# [32] = target: human polyclonal IgG (Gammanorm) (human); test: dynamic binding capacity; matrix A62a, ligand 9.6 mg/ml
# [33] = target: human polyclonal IgG (Gammanorm) (human); test: dynamic binding capacity; matrix H40, ligand […]; conditions: ligand content 6.9 mg/ml
# [34] = target: human polyclonal IgG (Gammanorm) (human); test: dynamic binding capacity; matrix A38, ligand […]
# [35] = target: human polyclonal IgG (Gammanorm) (human); test: dynamic binding capacity; matrix A62a, ligand […]
# [36] = target: human polyclonal IgG (Gammanorm) (human); test: dynamic binding capacity; matrix A33, ligand […]; conditions: ligand content 6.5 mg/ml
# [37] = target: human polyclonal IgG (Gammanorm) (human); test: dynamic binding capacity; matrix A56-2, ligand […]
# [38] = target: human polyclonal IgG (Gammanorm) (human); test: dynamic binding capacity; matrix A56, ligand […]; conditions: ligand content 7.1 mg/ml
# [39] = target: human polyclonal IgG (Gammanorm) (human); test: dynamic binding capacity; matrix H40, ligand 23.0 mg/ml
# [40] = target: human polyclonal IgG (Gammanorm) (human); test: dynamic binding capacity; matrix S9, ligand 18.4 mg/ml
# [41] = target: human polyclonal IgG (Gammanorm) (human); test: dynamic binding capacity; matrix C3, ligand 11.9 mg/ml
# [42] = target: human polyclonal IgG (Gammanorm) (human); test: pH 6-3 citrate gradient elution from column, peak 1; ligand […]
# [43] = target: human polyclonal IgG (Gammanorm) (human); test: dynamic binding capacity; matrix A38, ligand 11.6 mg/ml
# [44] = target: human polyclonal IgG (Gammanorm) (human); test: dynamic binding capacity; matrix C4, ligand 11.2 mg/ml
# [45] = target: human polyclonal IgG (Gammanorm) (human); test: dynamic binding capacity; matrix A54, ligand 21.1 mg/ml
# [46] = target: human polyclonal IgG (Gammanorm) (human); test: dynamic binding capacity; matrix H31, ligand […]
# [47] = target: human polyclonal IgG (Gammanorm) (human); test: dynamic binding capacity; matrix H35, ligand 20.3 mg/ml
# [48] = target: human polyclonal IgG (Gammanorm) (human); test: dynamic binding capacity; matrix A63b, ligand 10.6 mg/ml
# [49] = target: human polyclonal IgG (Gammanorm) (human); test: dynamic binding capacity; matrix H31, ligand 20.0 mg/ml
# [50] = target: human polyclonal IgG (Gammanorm) (human); test: dynamic binding capacity; matrix A56-2, ligand 19.2 mg/ml
# [51] = target: human polyclonal IgG (Gammanorm) (human); test: dynamic binding capacity; matrix A20, ligand […]
# [52] = target: human polyclonal IgG (Gammanorm) (human); test: pH 6-3 citrate gradient elution from column, peak 2; ligand […]
# [53] = target: human polyclonal IgG (Gammanorm) (human); test: dynamic binding capacity, 6 min residence; ligand 10.8 mg/ml on agarose beads
# [54] = target: human polyclonal IgG (Gammanorm) (human); test: dynamic binding capacity, measured after 24 h cumulative exposure to 0.5 M NaOH; ligand 10.8 mg/ml on agarose beads
substance,measurement,setting,value
MabSelect SuRe LX (GE Healthcare Life Sciences),Elution pH,[1],4.01 pH
same,Elution pH,[2],3.7 pH
"Zvar(N11K, H18K, S33K, D37E, A42R, N43A, L44I, K50R, L51Y)4 with an additional N-terminal cysteine (Examples 4 and 5) (designed binder)",Remaining IgG capacity Qb10 after six 4 h cycles,[3],52 mg/mL
same,Initial IgG capacity Qb10,[4],62.1 mg/mL
same,Initial IgG capacity Qb10,[5],56.3 mg/mL
same,Remaining IgG capacity Qb10 after six 4 h cycles,[6],48.1 mg/mL
"Zvar(Q9A, N11E, N28A, N43A)4 with an additional N-terminal cysteine (Example 4) (designed binder)",Remaining IgG capacity Qb10 after six 4 h cycles,[7],46.2 mg/mL
same,Remaining IgG capacity Qb10 after six 4 h cycles,[8],44.1 mg/mL
same,Initial IgG capacity Qb10,[9],49.1 mg/mL
same,Initial IgG capacity Qb10,[10],50 mg/mL
"Zvar(Q9A, N11E, Q40V, A42K, N43A, L44I)1 (designed binder)",Kd,[11],1.07 nM
same,koff,[11],0.000437 s⁻¹
same,kon,[11],410000 M⁻¹ s⁻¹
"Zvar(Q9A, N11E, Q40V, A42K, N43A, L44I)4 with an additional N-terminal cysteine (Examples 4 and 5) (designed binder)",Remaining IgG capacity Qb10 after six 4 h cycles,[12],44.2 mg/mL
same,Remaining IgG capacity Qb10 after six 4 h cycles,[7],53.6 mg/mL
same,Initial IgG capacity Qb10,[13],60.3 mg/mL
same,Initial IgG capacity Qb10,[14],49 mg/mL
same,Remaining IgG capacity Qb10 after six 4 h cycles,[15],56 mg/mL
same,Initial IgG capacity Qb10,[10],56.3 mg/mL
"Zvar(Q9A, N11E, Q40V, A42K, N43A, L44I)6 (designed binder)",Qb10% 2.4 min,[16],31 mg/mL
same,Qb10% 6 min,[16],54 mg/mL
same,Qb10% 2.4 min,[17],48 mg/mL
same,Qb10% 6 min,[17],76 mg/mL
same,Qb10% 2.4 min,[18],48 mg/mL
same,Qb10% 6 min,[18],59 mg/mL
same,Qb10% 2.4 min,[19],57 mg/mL
same,Qb10% 6 min,[19],82 mg/mL
same,Qb10% 2.4 min,[20],41 mg/mL
same,Qb10% 6 min,[20],56 mg/mL
same,Qb10% 2.4 min,[21],38 mg/mL
same,Qb10% 6 min,[21],46 mg/mL
same,Qb10% 6 min,[22],76 mg/mL
same,Qb10% 2.4 min,[23],55 mg/mL
same,Qb10% 6 min,[23],80 mg/mL
same,Qb10% 2.4 min,[24],44 mg/mL
same,Qb10% 6 min,[24],43 mg/mL
same,Qb10% 2.4 min,[25],59 mg/mL
same,Qb10% 6 min,[25],72 mg/mL
same,Qb10% 2.4 min,[26],43 mg/mL
same,Qb10% 6 min,[26],61 mg/mL
same,Qb10% 2.4 min,[27],53 mg/mL
same,Qb10% 6 min,[27],69 mg/mL
same,Qb10% 2.4 min,[28],47 mg/mL
same,Qb10% 6 min,[28],55 mg/mL
same,Qb10% 2.4 min,[29],36 mg/mL
same,Qb10% 6 min,[29],49 mg/mL
same,Qb10% 2.4 min,[30],42 mg/mL
same,Qb10% 6 min,[30],46 mg/mL
same,Qb10% 2.4 min,[31],36 mg/mL
same,Qb10% 6 min,[31],62 mg/mL
same,Qb10% 2.4 min,[32],56 mg/mL
same,Qb10% 6 min,[32],72 mg/mL
same,Qb10% 2.4 min,[33],50 mg/mL
same,Qb10% 6 min,[33],56 mg/mL
same,Qb10% 2.4 min,[34],47 mg/mL
same,Qb10% 6 min,[34],57 mg/mL
same,Qb10% 2.4 min,[35],62 mg/mL
same,Qb10% 6 min,[35],84 mg/mL
same,Qb10% 2.4 min,[36],44 mg/mL
same,Qb10% 6 min,[36],53 mg/mL
same,Qb10% 2.4 min,[37],50 mg/mL
same,Qb10% 6 min,[37],58 mg/mL
same,Qb10% 2.4 min,[38],48 mg/mL
same,Qb10% 6 min,[38],57 mg/mL
same,Qb10% 2.4 min,[39],41 mg/mL
same,Qb10% 6 min,[39],65 mg/mL
same,Qb10% 2.4 min,[40],56 mg/mL
same,Qb10% 6 min,[40],75 mg/mL
same,Qb10% 2.4 min,[41],51 mg/mL
same,Qb10% 6 min,[41],73 mg/mL
same,Elution pH,[42],4.24 pH
same,Qb10% 2.4 min,[43],48 mg/mL
same,Qb10% 6 min,[43],72 mg/mL
same,Qb10% 2.4 min,[44],62 mg/mL
same,Qb10% 6 min,[44],74 mg/mL
same,Qb10% 2.4 min,[45],38 mg/mL
same,Qb10% 6 min,[45],65 mg/mL
same,Qb10% 2.4 min,[46]; ligand content 6.5 mg/ml,37 mg/mL
same,Qb10% 6 min,[46]; ligand content 6.5 mg/ml,38 mg/mL
same,Qb10% 2.4 min,[46]; ligand content 10.4 mg/ml,50 mg/mL
same,Qb10% 6 min,[46]; ligand content 10.4 mg/ml,61 mg/mL
same,Qb10% 2.4 min,[47],20 mg/mL
same,Qb10% 6 min,[47],43 mg/mL
same,Qb10% 2.4 min,[48],49 mg/mL
same,Qb10% 6 min,[48],60 mg/mL
same,Qb10% 2.4 min,[49],31 mg/mL
same,Qb10% 6 min,[49],52 mg/mL
same,Qb10% 2.4 min,[50],61 mg/mL
same,Qb10% 6 min,[50],82 mg/mL
same,Qb10% 2.4 min,[51],38 mg/mL
same,Qb10% 6 min,[51],64 mg/mL
same,Elution pH,[52],3.81 pH
"Zvar(Q9A, N11K, H18K, D37E, A42R)4 with an additional N-terminal cysteine (Example 4) (designed binder)",Initial IgG capacity Qb10,[53],56.9 mg/mL
same,Remaining IgG capacity Qb10 after six 4 h cycles,[54],52.5 mg/mL
